In patent US10226417B2, “Drug delivery systems and applications” (priority 2011, dated 2019):
Converted amounts (≈) assume the structure as drawn. Like-named read-outs stand apart in the source and are kept apart here.

Tests used:
[1] = cited from earlier work
[2] = cited from earlier work; remark: listed apart in the source
[3] = Circular dichroism analysis of released protein; format: physicochemical; conditions: protein released from O-LA-SG into PBS, sample at day 40
Description: At day 40 a sample of the PBS solution was tested be circular dichroism CD analysis to monitor for any changes in protein structure.

[4] = Isoelectric focusing (IEF) of ovalbumin during processing; format: physicochemical
Description: Samples of O-LA were prepared as in Example 5. Samples at each step of the process were collected and analyzed by Isoelectric focusing (IEF) which measures the isoelectric point (pI) of the protein. A shift in pI of more than 0.2 is indicative of a single deamidation reaction. All samples had pI values that indicated no deamidation had occurred. The same samples were analyzed by ELISA. The ELISA tests indicated no denaturation of the epitope had occurred.

[5] = 1-octanol/water (pH 7.4; buffer solution)

Molecule: CCCCCCCCCCCCCCCCCC(=O)OC [methyl stearate]
- log P [1, 5]: 8.43

Molecule: CCCCCCCCCC(=O)O [decanoic]
- log P ([1]; pH 7.4): 3.75

Molecule: CCCCCCCCCCCCCCCC(=O)OC [methyl palmitate]
- log P [1, 5]: 7.41

Molecule: CCCCCCCCCCCC(=O)O [dodecanoic]
- log P [1, 5]: 4.77
- Methyl ester solubility ([2]; value is for the methyl ester of the acid named in the row): 4.8 µg/mL
- Solubility in water at 20° C. [2]: 55 µg/mL (≈ 275 µM)

Molecule: CCCCCCCCCCCCCC(=O)O [tetradecanoic]
- Solubility in water at 20° C. [2]: 20 µg/mL (≈ 87.6 µM)

B1: ovalbumin: protein albumin used to model a water soluble therapeutic agent protein (protein, UniProt P01012 2-386, looked up)
Ovalbumin: GSIGAASMEFCFDVFKELKVHHANENIFYCPIAIMSALAMVYLGAKDSTRTQINKVVRFDKLPGFGDSIEAQCGTSVNVHSSLRDILNQITKPNDVYSFSLASRLYAEERYPILPEYLQCVKELYRGGLEPINFQTAADQARELINSWVESQTNGIIRNVLQPSSVDSQTAMVLVNAIVFKGLWEKAFKDEDTQAMPFRVTEQESKPVQMMYQIGLFRVASMASEKMKILELPFASGTMSMLVLLPDEVSGLEQLESIINFEKLTEWTSSNVMEERKIKVYLPRMKMEEKYNLTSVLMAMGITDVFSSSANLSGISSAESLKISQAVHAAHAEINEAGREVVGSAEAGVDAASVSEEFRADHPFLFCIKHIATNAVLFFGRCVSP
- change in protein structure by circular dichroism [3]: no wavelength shift

B2: Albumin powder: ovalbumin powder, process sample before grinding (protein, UniProt P01012 2-386, looked up)
Ovalbumin: GSIGAASMEFCFDVFKELKVHHANENIFYCPIAIMSALAMVYLGAKDSTRTQINKVVRFDKLPGFGDSIEAQCGTSVNVHSSLRDILNQITKPNDVYSFSLASRLYAEERYPILPEYLQCVKELYRGGLEPINFQTAADQARELINSWVESQTNGIIRNVLQPSSVDSQTAMVLVNAIVFKGLWEKAFKDEDTQAMPFRVTEQESKPVQMMYQIGLFRVASMASEKMKILELPFASGTMSMLVLLPDEVSGLEQLESIINFEKLTEWTSSNVMEERKIKVYLPRMKMEEKYNLTSVLMAMGITDVFSSSANLSGISSAESLKISQAVHAAHAEINEAGREVVGSAEAGVDAASVSEEFRADHPFLFCIKHIATNAVLFFGRCVSP
modifications: powder
notes: ovalbumin powder, process sample before grinding
- IEF data Ovalbumin A1 % ([4]; Sample 1): 80.9%
- IEF data Ovalbumin A1 pI ([4]; Sample 1): 5.10
- IEF data Ovalbumin A2 + A3 % ([4]; Sample 1): 19.1%
- IEF data Ovalbumin A2 + A3 pI ([4]; Sample 1): 5.14
- IEF data Ovalbumin A1 % ([4]; Sample 2): 82.2%
- IEF data Ovalbumin A1 pI ([4]; Sample 2): 5.09
- IEF data Ovalbumin A2 + A3 % ([4]; Sample 2): 17.8%
- IEF data Ovalbumin A2 + A3 pI ([4]; Sample 2): 5.14

B3: Ground Albumin powder: ovalbumin ground to a fine powder, process sample (protein, UniProt P01012 2-386, looked up)
Ovalbumin: GSIGAASMEFCFDVFKELKVHHANENIFYCPIAIMSALAMVYLGAKDSTRTQINKVVRFDKLPGFGDSIEAQCGTSVNVHSSLRDILNQITKPNDVYSFSLASRLYAEERYPILPEYLQCVKELYRGGLEPINFQTAADQARELINSWVESQTNGIIRNVLQPSSVDSQTAMVLVNAIVFKGLWEKAFKDEDTQAMPFRVTEQESKPVQMMYQIGLFRVASMASEKMKILELPFASGTMSMLVLLPDEVSGLEQLESIINFEKLTEWTSSNVMEERKIKVYLPRMKMEEKYNLTSVLMAMGITDVFSSSANLSGISSAESLKISQAVHAAHAEINEAGREVVGSAEAGVDAASVSEEFRADHPFLFCIKHIATNAVLFFGRCVSP
modifications: ground powder
notes: ovalbumin ground to a fine powder, process sample
- IEF data Ovalbumin A1 % ([4]; Sample 1): 81.7%
- IEF data Ovalbumin A1 pI ([4]; Sample 1): 5.10
- IEF data Ovalbumin A2 + A3 % ([4]; Sample 1): 18.3%
- IEF data Ovalbumin A2 + A3 pI ([4]; Sample 1): 5.15
- IEF data Ovalbumin A1 % ([4]; Sample 2): 81.2%
- IEF data Ovalbumin A1 pI ([4]; Sample 2): 5.11
- IEF data Ovalbumin A2 + A3 % ([4]; Sample 2): 18.8%
- IEF data Ovalbumin A2 + A3 pI ([4]; Sample 2): 5.15
